In patent US8257928B2, “Methods for predicting and treating tumors resistant to drug, immunotherapy and radiation” (The Regents of the University of California, priority 2008, dated 2012):
“Also recorded” adds a separate entry of the source.

Test system: HMT3522 T4-2 cells
Test: Percent cell death in 2D monolayer, 3D rBM and reverted cultures (active caspase 3)
Assay type: cell-based, human
Source text: The oligonucleotides specifying the small hairpin RNAs (shRNAs) were subcloned from pSilencer-H1 into pLZRS-MFG-CMV-Neo-U6, a recombinant self-inactivating retroviral vector constructed from the backbone of an MFG provirus (Proc. Natl. Acad. Sci. USA 85:6460-6464 (1988); Proc. Natl. Acad. Sci. USA 90:3539-3543 (1993)), which directs the expression of shRNA under the control of the U6 promoter. Amphotropic retrovirus was produced in Phoenix ampho cells (provided by Professor G. Nolan, Stanford Medical Center) with packaging vectors pCgp and pVSVG to boost viral titer. S1 cells or T4-2 cells, maintained in monolayer cultures, were then spin infected with retrovirus carrying the various RNAi constructs and infected cell populations were selected using 300 μg/ml G418 (Invitrogen).
Non-neoplastic HMT3522 S1 breast epithelial cells or neoplastic HMT3522 T4-2 cells were embedded (8.5×10^5/ml) within reconstituted basement membrane (rBM) gel (Matrigcl, BD Biosciences) in chamber slides (Lab-Tek chamber slides, Nunc) according to the procedures described in U.S. Pat. No. 6,123,941 and Nat. Method. 4:359-365 (2007). […] Phenotypic reversion of HMT3522 T4-2 cells in three dimensional rBM cultures was performed using an epidermal growth factor receptor (EGFR) specific tyrosine kinase inhibitor tyrphostin AG 1478 (100 nM) (Calbiochem), as previously described (Proc. Natl. Acad. Sci. USA 95:14821-14826 (1998))
Apoptotic cell death of the breast epithelial cells cultured in three dimensional rBM was initiated by treatment with recombinant, purified human tumor necrosis factor-related apoptosis-inducing ligand (TRAIL) peptides (BIOMOL) or Paclitaxel (Sigma-Aldrich) as described (Cancer Cell 2:205-216 (2002)). DNA damage-induced cell death was initiated by ionizing radiation (IR) using a Mark I Cesium 137 irradiator (JL Shepherd & Associates).
Percent cell death induced by TRAIL or Paclitaxel was quantified using detection of active caspase 3 (Cell Signaling) by indirect immunofluorescence as described (J. Cell Biol. 163:1397-1407 (2003)). Percent cell death induced by IR was quantified using Live/Dead Viability/Cytotoxicity Assay (Molecular Probes). For both methods, cells were counterstained with 4′,6-diamidino-2-phenylindole (DAPI) to label cell nuclei present at different focal planes in the 3D architectures. Percent death was calculated as cells positive for ethidium bromide or active caspase 3 expressed as a percentage of the total number of cells scored by the nuclear staining.
Percent cell death induced by TRAIL was quantified using detection of active caspasc 3 as described in Example 4.

N-CoR2 (K449A): mutant N-CoR2 with lysine 449 mutated to alanine; binds HDAC3 but does not activate it
sensitivity to death induction by TRAIL of cells transduced with the mutant (T4-2 cells in rBM gel 5 days, vs vector control cells): hypersensitive to death induction to an extent even greater than that of the vector control cells

B1: TRAIL: recombinant, purified human tumor necrosis factor-related apoptosis-inducing ligand (TRAIL) peptides (BIOMOL) (protein, UniProt P50591 1-281, looked up)
Tumor necrosis factor ligand …: MAMMEVQGGPSLGQTCVLIVIFTVLLQSLCVAVTYVYFTNELKQMQDKYSKSGIACFLKEDDSYWDPNDEESMNSPCWQVKWQLRQLVRKMILRTSEETISTVQEKQQNISPLVRERGPQRVAAHITGTRGRSNTLSSPNSKNEKALGRKINSWESSRSGHSFLSNLHLRNGELVIHEKGFYYIYSQTYFRFQEEIKENTKNDKQMVQYIYKYTSYPDPILLMKSARNSCWSKDAEYGLYSIYQGGIFELKENDRIFVSVTNEHLIDMDHEASFFGAFLVG
death sensitivity of cells cultured in 3D rBM (3D rBM disorganized aggregates vs 2D monolayer, TRAIL 1.0 μg/mL, Paclitaxel 20 μM): decreased sensitivity
death sensitivity of structurally reverted spheroids (reverted with tyrphostin AG 1478 in 3D rBM, TRAIL 1.0 μg/mL, Paclitaxel 20 μM): further decrease in the sensitivity
death sensitivity of cells with stable overexpression of wild-type N-CoR2 (vs vector control cells, 3D rBM): markedly resistant; also recorded: less sensitive
